Reference: patent US10526691B2, “Functionalized surface” (priority 2015, dated 2020)
Ends that are not written are not given here.

Key:
[1] = tested on: S. epidemridis; experiment: Crystal violet absorbance of bacteria adhering to peptide-coated nitrided steel; assay type: cell-based; settings: overnight at 37° C., FIG. 14
Experimental: Nitrided steel was incubated with a solution of an antimicrobial peptide having the sequence RRIYGRGYIRR (SEQ ID NO: 1) (25 µl, 10 mg/ml/cm^2) at room temperature for 1 hour with a HBTU/DIEA catalyst in DMF to produce a coated surface.
Coated surfaces were inoculated with […] bacterial cells (S. epidemridis) and incubated overnight at 37° C. The surfaces were then washed with PBS and stained using Crystal Violet ([…]) for 15 minutes at room temperature. The surfaces were washed three times to remove any residual stain and the stain lifted in 70% ethanol. The absorbance of crystal violet was read at 560 nm to quantify the level of stain (FIG. 14). The amount of stain is directly related to the number of bacteria.

[2] = Peptide fluorescence on nitrided titanium after environmental treatments; assay type: physicochemical; settings: FIG. 9
Experimental: The durability of immobilized peptide on the surface of nitrided titanium was assessed following different environmental treatments, as shown in FIG. 9. […] (SEQ ID NO: 5)-coated titanium was incubated in control PBS solution, trypsin, Dettola or treated with sandpaper at room temperature for a suitable time which depended on the treatment used. The mean pixel number above the threshold was then assessed by fluorescence microscopy. Importantly, peptide fluorescence was retained after any of the environmental treatments, indicating a strong and durable interaction between peptide and metal.

[3] = tested on: colony forming unit (CFU) counts; experiment: CFU count on peptide-coated versus control nitrided α2 steel attached to areas with high predicted CFU counts; settings: α2 steel coated with unlabelled peptide; swabs on days 1, 2, 7, 8 and 9; all areas tested; FIG. 7
Experimental: α2 steel was prepared using a standard nitriding process and coated with 1 µg/ml of the unlabelled peptide […] (SEQ ID NO: 5) using the method as described in Example 1. Peptide coated, or control uncoated steel samples were then attached to areas where high colony forming unit (CFU) counts were predicted (e.g. toilet seat, kitchen tap etc.). Cotton wool buds, dipped in saline, were used to swab surfaces on days 1, 2, 7, 8 and 9. Buds were placed in sterelin tubes and used to inoculate blood agar plates, following which plates were incubated for 48 hours at 37° C. before CFU counts were taken.

[4] = tested on: bacteria; experiment: Bacterial growth (absorbance) on peptide-coated nitrided titanium used as growth plate; assay type: cell-based; settings: antimicrobial-peptide-coated nitrided titanium, in comparison to the controls; FIG. 10
Experimental: Nitrided titanium was prepared by Metaltech, and coated as described previously with the peptide […] (SEQ ID NO: 5), aside from a control (peptide) group in which nitrided titanium was coated with a non-antimicrobial peptide, and a control (titanium) group where the nitrided titanium remained uncoated. A positive control group, consisting of uncoated tissue culture plastic, was also used. The surfaces were washed and used as growth plates for bacteria. One group of antimicrobial peptide-coated titanium surfaces was immediately used as a growth plate for bacteria (treatment (immediate)). Another antimicrobial peptide-coated titanium group (treatment (environment)) was treated with PBS, followed by trypsin/EDTA, followed by Dettol followed by sandpapering, following which the surfaces were used as a growth plate for bacteria. The Absorbance relates to the bacteria number growing on the surface after incubation (FIG. 10). Low values indicate no bacterial growth, while high values indicate high numbers of bacteria.

[5] = Peptide attachment to nitrided / nitrocarburised steel types, fluorescence microscopy pixel count; assay type: physicochemical; settings: FIG. 1
Experimental: Nitrided metal surfaces were incubated overnight at room temperature on a rotamixer in a solution comprising a 9:0.5:0.5 ratio of dimethylformamide (DMF), DIPIA and HBTU, respectively, and 0.5 µg/ml of the peptide […] (SEQ ID NO: 5) tagged with a fluorescent label. Following incubation, surfaces were washed with DMF, which was replenished every 5 minutes for 50 minutes, followed by saline, which was also replenished every 5 minutes for 50 minutes, before being left to air dry.
(§1) The peptide percentage surface coverage of the metal was assessed by the use of fluorescent peptides and microscopy. Peptide coated metal was viewed by a fluorescence microscope at an exposure of 1.55 s using a 10× objective. Nine images for each 1 cm^2 piece of steel were obtained. Images were analysed using ImageJ software (NIH, MD, USA). The threshold from control images, obtained from nitrided metal which had not been treated with peptide, was adjusted until all of the pixels were removed, leaving an image with no staining. This acted as a control baseline. Images from corresponding experimental samples were then adjusted to this threshold value and the residual pixel count then recorded as a measure of peptide attachment.

[6] = Peptide coverage of nitrided steel after environmental, cleaning or coating treatments, fluorescence microscopy; assay type: physicochemical
Experimental: as §1
Mild steel was nitrided using a standard process for 19 hours at 440° C. by Metaltech. The peptide […] tagged with a fluorescent label was immobilized on the surface of the nitrided steel as described in Example 1. Peptide-coated steel was incubated in the appropriate environmental treatment at room temperature for a suitable time which depended on the treatment used. Samples were washed with saline following treatment and peptide attachment analysed by microscopy as detailed in Example 1.
Mild steel was nitrided using a standard process by Metaltech. The peptide […] (SEQ ID NO: 5) tagged with a fluorescent label was immobilized on the surface of the nitrided steel as described in Example 1. Peptide-coated steel was incubated in the appropriate environmental treatment at room temperature for a suitable time which depended on the treatment used. Samples were washed with saline following treatment and peptide attachment analysed by microscopy as detailed in Example 1.
Steel was nitrided or plasma ferretic nitrocarburised as described in Example 1, after which the peptide […] (SEQ ID NO: 5), tagged with a fluorescent label was immobilised on the nitrided surface as described in Example 1.
Peptide-coated alpha steel samples were incubated in various standard cleaning or coating treatments at room temperature, for a suitable time which depended on the treatment used, in order to determine if any of these treatments affected the attachment of the peptide to the steel. […] This decrease may be partly accounted for by loss of fluorescence over the period of 3 weeks as the steel pieces were repeatedly exposed to light.

[7] = tested on: bacteria; experiment: Long term study of peptide-coated surfaces on taps in a medical school, one year; settings: taps in toilets of a medical school; after 12 months; FIG. 13
Excerpt: The peptide-coated surfaces described in Examples 8 and 9 were installed in a medical school. The surfaces were placed on taps in the toilets and were swabbed over a period of one year.

[8] = Peptide fluorescence on nitrided titanium over 1 to 4 weeks in PBS; assay type: physicochemical; settings: FIG. 8; for change of pixel number: nitrided titanium in PBS
Experimental: Having established the durability and the efficacy of immobilized peptides on a steel surface, the efficacy of peptides immobilized on a titanium surface was assessed. Nitrided titanium was prepared by Metaltech. […] (SEQ ID NO: 5), tagged with a fluorescent label, was immobilised on the surface of the nitrided titanium as described previously. Peptide-coated samples were incubated in PBS solution at room temperature for between 1 and 4 weeks, following which fluorescence, and the resulting pixel number above threshold, was assessed as described previously by fluorescence microscopy.

[9] = tested on: bacteria; experiment: Peptide-coated nitrided steel surfaces on door handles, city hospital Outpatients area, three months
Experimental: A further study was carried out in the Outpatients area of a city hospital. This is a very busy area of the hospital and sees a high volume of patient and staff traffic. The peptide used was […] (SEQ ID NO: 5), and the coated steel surfaces were prepared as in Example 8.
Control and coated surfaces were placed on door handles in the Outpatients area. […] We saw 1 colony growth from the surfaces, which is believed to be due to the frequency of use of the surfaces. Surfaces were touched on average every 2 minutes during an observation period and, in a lot of cases, the surfaces had been touched immediately prior to the swabbing being undertaken.

[10] = tested on: bacteria; experiment: Peptide-coated nitrided steel surfaces in a hospital unit over three months, bacteria counts
Experimental: A nitrided steel surface was coated with the peptide […] (SEQ ID NO: 5). The surface was dip-coated in a mixture of the peptide (3 µl of 10 mg/ml peptide per cm^2 of metal) and a catalyst (HBTU/DIEA mix) which adhered the peptide to the surface. Coating was carried out at room temperature for 12 hours.
Coated and uncoated steel surfaces were installed in a hospital unit, in the Accident and Emergency room, Operating Theatre, Ward 1 and the associated bathroom. Control surfaces and coated surfaces were situated in identical locations and tested over three months. After use the samples and data collected were sent to the University of Birmingham for analysis.

Sequence: RRIYGRGYIRR (RRYIGRGYIRR) [antimicrobial peptide coated on nitrided steel]
- number of bacteria adhering to the surface (crystal violet absorbance at 560 nm) [1]: significantly reduce the number of bacteria adhering to the surface

Sequence: RRRRRRGALAGRRRRRRGALAG (also: fluorescent tag, immobilized on steel or titanium) [antimicrobial peptide immobilized covalently on nitrided steel or titanium; fluorescently tagged in the attachment studies]
- peptide fluorescence after treatment ([2]; control solution, trypsin or Dettol): remained similar
- peptide fluorescence after treatment ([2]; mechanical agitation using sandpaper): retained, albeit at a lower level
- mean CFU count, peptide coated versus control [3]: consistently higher mean CFU count on control pieces of metal
- absorbance (bacteria number growing on the surface) [4]: very low absorbance values
- preferential binding to steel type ([5]; comparison of eight steel types): highest binding affinity for alpha steel types
- mean pixel counts (peptide attachment) ([5]; eight steel types (α1-3, β1-3, P1-P2), fluorescently tagged peptide): above 0
- difference in pixel counts between treatments ([6]; P2 steel group as printed in the beta steel paragraph, FIG. 5, H=13.7, p=0.033): significant difference
- differences in pixel number between treatments ([6]; PlasOx 1 steel, FIG. 6, H=15.4 p=0.017): significant
- differences in pixel number between treatments ([6]; PlasOx 2 steel, FIG. 6, H=12.7 p=0.048): significant
- pixel number, PlasOx 2 steel versus PlasOx 1 steel ([6]; following environmental treatment, in most instances, FIG. 6): higher for PlasOx 2 steel than PlasOx 1 steel
- peptide coverage of nitrided steel before and after environmental treatments ([6]; mild steel nitrided 19 hours at 440° C., room temperature, FIG. 2): remains at a similar level
- peptide coverage of nitrided steel following environmental treatment ([6]; nitrided mild steel, room temperature, FIG. 3): remains constant
- difference in pixel counts between treatments ([6]; α1 steels, FIG. 4, H=19.4 p=0.004): statistically significant difference
- difference in pixel counts between treatments ([6]; α2 steels, FIG. 4, H=12.4, p=0.053): no significant difference
- difference in pixel counts between treatments ([6]; α3 steels, FIG. 4, H=12.8, p=0.047): statistically significant difference
- difference in pixel counts between treatments ([6]; β1 steels, FIG. 5, H=10.6, p=0.103): no significant difference
- difference in pixel counts between treatments ([6]; β steels (number not given), FIG. 5, H=10.9, p=0.09): no significant difference
- inhibition of bacterial growth on treated surfaces [7]: inhibition of bacterial growth was still observed
- change of pixel number ([8]; after 2 weeks): remained relatively constant
- change of pixel number ([8]; between 1 and 2 weeks): decreased considerably
- pixels above threshold ([8]; nitrided titanium, after 1, 2, 3 and 4 weeks in PBS solution): Pixels were observed above the threshold
- percentage effectiveness of the coated surfaces compared to control surfaces ([9]; city hospital setting, all time points over three months, FIG. 12B): ≥ 99%
- levels of bacteria on peptide-coated surfaces ([9]; door handles, Outpatients area of a city hospital, FIG. 12): 1 cfu
- effectiveness ([9]; door handles, Outpatients area, Example 9): greater than 99%
- percentage effectiveness of the coated surfaces compared to control surfaces ([10]; hospital setting, all time points over three months, FIG. 11B): ≥ 99%
- inhibition of bacterial growth on coated surfaces ([10]; hospital unit, three months, FIG. 11): complete inhibition of bacterial growth
- colony forming units on the one coated plate that showed growth ([10]; month 2, believed due to contamination during swabbing or plating): one
